The target in assay [1] is T1, polyubiquitin chains (Ub2-7), synthetic Lys48-linked (UniProt P0CG47 1-76, units linked by Lys48 isopeptide bonds).
T1 construct: A mixture of chains of 2 to 7 ubiquitin units; also called multiubiquitin chains
Description: GST pull-down, immunoblot with anti-ubiquitin. In general terms: A western blot detects proteins with antibodies after separation by electrophoresis.

The target of assay [2] is T2, heat shock protein 70 cognate (Hsc70), endogenous (human, UniProt P11142 2-646).
T2 construct: In the 1D western blots it is detected together with Hsp70 by one anti-Hsc70/Hsp70 monoclonal antibody; statements on 'Hsc70/Hsp70' are written once for each of the two; also called member of Hsc70/Hsp70
Description: co-immunoprecipitation with anti-Flag M2 agarose from HEK293T lysate, 2D gel, MALDI-TOF MS (table of Flag-hFAF1 binding proteins).
Description: Protein spots detected in the autoradiogram were cut out from the corresponding silver stained gel and subjected to in-gel digestion with trypsin and mass peptide fingerprint analyses using MALDI-TOF MS.

Assay [3] concerns the target heat shock protein 70 inducible (Hsp70), endogenous (human, UniProt P0DMV8 2-641). Description: cell-based or functional assay.
The target of another assay is bacterial Hsp70, DnaK (E. coli, UniProt P0A6Y8 2-638). Description: not told (data not shown).
Chain of bacterial Hsp70, DnaK (P0A6Y8 2-638 limits assumed): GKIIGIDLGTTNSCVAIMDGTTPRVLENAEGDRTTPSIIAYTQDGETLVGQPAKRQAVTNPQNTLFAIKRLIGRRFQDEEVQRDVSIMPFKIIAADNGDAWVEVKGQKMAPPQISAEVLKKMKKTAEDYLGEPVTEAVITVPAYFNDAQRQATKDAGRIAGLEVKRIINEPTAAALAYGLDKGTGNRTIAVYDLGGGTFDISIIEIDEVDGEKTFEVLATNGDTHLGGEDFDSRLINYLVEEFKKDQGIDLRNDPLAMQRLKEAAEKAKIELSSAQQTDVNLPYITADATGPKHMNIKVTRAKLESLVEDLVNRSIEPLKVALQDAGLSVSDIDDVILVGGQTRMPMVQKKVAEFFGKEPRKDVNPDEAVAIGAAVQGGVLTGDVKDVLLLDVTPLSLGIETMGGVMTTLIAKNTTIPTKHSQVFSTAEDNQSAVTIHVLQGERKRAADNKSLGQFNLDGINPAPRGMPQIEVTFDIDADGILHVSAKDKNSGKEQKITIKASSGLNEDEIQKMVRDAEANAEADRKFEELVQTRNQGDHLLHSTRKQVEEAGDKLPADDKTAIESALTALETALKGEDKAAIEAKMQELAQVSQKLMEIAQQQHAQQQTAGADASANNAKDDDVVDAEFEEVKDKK

Chain of heat shock protein 70 inducible (Hsp70), endogenous (P0DMV8 2-641): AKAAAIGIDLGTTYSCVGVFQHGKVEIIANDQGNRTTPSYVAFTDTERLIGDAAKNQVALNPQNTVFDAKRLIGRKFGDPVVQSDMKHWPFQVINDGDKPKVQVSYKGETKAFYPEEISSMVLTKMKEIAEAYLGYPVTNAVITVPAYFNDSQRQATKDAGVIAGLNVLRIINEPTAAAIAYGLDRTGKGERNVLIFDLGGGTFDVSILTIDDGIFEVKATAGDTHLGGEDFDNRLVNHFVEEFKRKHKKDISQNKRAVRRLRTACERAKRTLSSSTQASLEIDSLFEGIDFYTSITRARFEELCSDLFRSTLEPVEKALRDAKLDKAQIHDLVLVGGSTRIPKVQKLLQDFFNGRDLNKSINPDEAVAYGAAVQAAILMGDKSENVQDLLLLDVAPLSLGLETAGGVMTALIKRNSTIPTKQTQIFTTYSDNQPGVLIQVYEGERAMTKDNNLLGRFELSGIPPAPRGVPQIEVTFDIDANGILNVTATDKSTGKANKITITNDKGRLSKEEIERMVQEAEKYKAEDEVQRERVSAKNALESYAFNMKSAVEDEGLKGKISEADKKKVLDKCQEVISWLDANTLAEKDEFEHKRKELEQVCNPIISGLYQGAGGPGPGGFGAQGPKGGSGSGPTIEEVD
T2 sequence (P11142 2-646 limits assumed): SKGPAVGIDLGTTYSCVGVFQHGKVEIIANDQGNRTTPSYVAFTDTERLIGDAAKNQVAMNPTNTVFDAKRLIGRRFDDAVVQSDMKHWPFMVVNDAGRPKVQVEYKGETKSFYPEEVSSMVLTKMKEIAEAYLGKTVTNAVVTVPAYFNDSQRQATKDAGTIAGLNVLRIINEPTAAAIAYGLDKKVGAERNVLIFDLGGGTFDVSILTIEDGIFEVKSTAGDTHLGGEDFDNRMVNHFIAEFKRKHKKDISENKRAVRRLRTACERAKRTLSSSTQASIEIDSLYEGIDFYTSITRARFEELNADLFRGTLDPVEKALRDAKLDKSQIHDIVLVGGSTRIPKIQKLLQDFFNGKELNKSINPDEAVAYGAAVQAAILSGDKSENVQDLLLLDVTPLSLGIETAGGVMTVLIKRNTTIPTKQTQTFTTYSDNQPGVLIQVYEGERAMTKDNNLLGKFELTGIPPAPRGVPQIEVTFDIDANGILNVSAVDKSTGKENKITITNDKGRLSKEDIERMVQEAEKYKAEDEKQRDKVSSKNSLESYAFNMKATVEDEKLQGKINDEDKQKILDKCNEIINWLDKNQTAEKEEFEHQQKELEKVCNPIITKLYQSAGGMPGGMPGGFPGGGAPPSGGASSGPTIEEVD

B1: GST-hFAF1[82-650] (other)
chain: SAFRPVMPSRQIVERQPRMLDFRVEYRDRNVDVVLEDTCTVGEIKQILENELQIPVSKMLLKGWKTGDVEDSTVLKSLHLPKNNSLYVLTPDLPPPSSSSHAGALQESLNQNFMLIITHREVQREYNLNFSGSSTIQEVKRNVYDLTSIPVRHQLWEGWPTSATDDSMCLAESGLSYPCHRLTVGRRSSPAQTREQSEEQITDVHMVSDSDGDDFEDATEFGVDDGEVFGMASSALRKSPMMPENAENEGDALLQFTAEFSSRYGDCHPVFFIGSLEAAFQEAFYVKARDRKLLAIYLHHDESVLTNVFCSQMLCAESIVSYLSQNFITWAWDLTKDSNRARFLTMCNRHFGSVVAQTIRTQKTDQKPLFLIIMGKRSSNEVLNVIQGNTTVDELMMRLMAAMEIFTAQQQEDIKDGDEREARENVKREQDEAYRLSLEADRAKREAREREMAEQFRLEQIRKEQEEEREAIRLSLEQALPPEPKEENAEPVSKLRIRTPSGEFLERRFLASNKLQIVFDFVASKGFPWDEYKLLSTFPRRDVTQLDPNKSLLEVKLFPQETLFLEAKE
notes: Immobilized on glutathione sepharose; also called amino acid 82-650; not shown: glutathione S-transferase (GST) tag
Regarding B1, the binding result in assay [1] was “no binding”.

B2: Flag-tagged hFAF1 (human Fas associated factor 1, full form) (other)
chain: MASNMDREMILADFQACTGIENIDEAITLLEQNNWDLVAAINGVIPQENGILQSEYGGETIPGPAFNPASHPASAPTSSSSSAFRPVMPSRQIVERQPRMLDFRVEYRDRNVDVVLEDTCTVGEIKQILENELQIPVSKMLLKGWKTGDVEDSTVLKSLHLPKNNSLYVLTPDLPPPSSSSHAGALQESLNQNFMLIITHREVQREYNLNFSGSSTIQEVKRNVYDLTSIPVRHQLWEGWPTSATDDSMCLAESGLSYPCHRLTVGRRSSPAQTREQSEEQITDVHMVSDSDGDDFEDATEFGVDDGEVFGMASSALRKSPMMPENAENEGDALLQFTAEFSSRYGDCHPVFFIGSLEAAFQEAFYVKARDRKLLAIYLHHDESVLTNVFCSQMLCAESIVSYLSQNFITWAWDLTKDSNRARFLTMCNRHFGSVVAQTIRTQKTDQKPLFLIIMGKRSSNEVLNVIQGNTTVDELMMRLMAAMEIFTAQQQEDIKDGDEREARENVKREQDEAYRLSLEADRAKREAREREMAEQFRLEQIRKEQEEEREAIRLSLEQALPPEPKEENAEPVSKLRIRTPSGEFLERRFLASNKLQIVFDFVASKGFPWDEYKLLSTFPRRDVTQLDPNKSLLEVKLFPQETLFLEAKE
notes: Transiently overexpressed in HEK293T cells and pulled out of the lysate with anti-Flag M2 agarose; also called Flag-hFAF1; pFlag-CMV-2/hFAF1; not shown: Flag tag from the pFlag-CMV-2 vector
B2: the binding result in assay [2] is given as “binds”. Also, the “SAPK/JNK activity after heat shock” value in assay [3] came out at 16 fold.

B3: purified recombinant hFAF1 (other)
chain: MASNMDREMILADFQACTGIENIDEAITLLEQNNWDLVAAINGVIPQENGILQSEYGGETIPGPAFNPASHPASAPTSSSSSAFRPVMPSRQIVERQPRMLDFRVEYRDRNVDVVLEDTCTVGEIKQILENELQIPVSKMLLKGWKTGDVEDSTVLKSLHLPKNNSLYVLTPDLPPPSSSSHAGALQESLNQNFMLIITHREVQREYNLNFSGSSTIQEVKRNVYDLTSIPVRHQLWEGWPTSATDDSMCLAESGLSYPCHRLTVGRRSSPAQTREQSEEQITDVHMVSDSDGDDFEDATEFGVDDGEVFGMASSALRKSPMMPENAENEGDALLQFTAEFSSRYGDCHPVFFIGSLEAAFQEAFYVKARDRKLLAIYLHHDESVLTNVFCSQMLCAESIVSYLSQNFITWAWDLTKDSNRARFLTMCNRHFGSVVAQTIRTQKTDQKPLFLIIMGKRSSNEVLNVIQGNTTVDELMMRLMAAMEIFTAQQQEDIKDGDEREARENVKREQDEAYRLSLEADRAKREAREREMAEQFRLEQIRKEQEEEREAIRLSLEQALPPEPKEENAEPVSKLRIRTPSGEFLERRFLASNKLQIVFDFVASKGFPWDEYKLLSTFPRRDVTQLDPNKSLLEVKLFPQETLFLEAKE
notes: also called hFAF1 cleaved by thrombin from GST-hFAF1
With B3, the binding result with bacterial Hsp70, DnaK is on record as “binds”.

B4: Flag-hFAF1[366-650] (other, not shown: small tags and cut ends)
chain: YVKARDRKLLAIYLHHDESVLTNVFCSQMLCAESIVSYLSQNFITWAWDLTKDSNRARFLTMCNRHFGSVVAQTIRTQKTDQKPLFLIIMGKRSSNEVLNVIQGNTTVDELMMRLMAAMEIFTAQQQEDIKDGDEREARENVKREQDEAYRLSLEADRAKREAREREMAEQFRLEQIRKEQEEEREAIRLSLEQALPPEPKEENAEPVSKLRIRTPSGEFLERRFLASNKLQIVFDFVASKGFPWDEYKLLSTFPRRDVTQLDPNKSLLEVKLFPQETLFLEAKE
As for B4, in assay [3], the “SAPK/JNK activity after heat shock” value is 13 fold.

For the origin of these results see patent publication US20050261190A1 (SK, published 2005).
